Measured values reported in patent publication US20250179126A1, “A NOVEL PEPTIDE FROM A PHOTOSYNTHETIC BACERIUM DIRECTLY TARGETS MITOCHONDRIA TO TRIGGER APOPTOSIS IN ADVANCED PROSTATE CANCER CELLS” (priority 2022, published 2025).

What was measured:
[1] = system: spontaneously developed mammary tumors; assay: NIR-imaging of transgenic mice; format: in vivo; settings: 5 mg/kg once, imaged after 24 h
Experimental: FIG. 29A-29C: Effect of azurin from P. aeruginosa in a transgenic animal model. 29A. Near-infrared red (NIR) dye-conjugated azurin or PBS was injected i.v. into transgenic mice that spontaneously develop mammary tumors. Twenty-four hours after azurin injection, mice were imaged with a photodynamic eye (PDE) system (left: photographic image, right: NIR fluorescence image at 800 nm). 29B. At the end of the study, the tumors were resected.
NIR-imaging of transgenic mice: Near infrared red fluorescent dye (IR800, Licor, NE) was conjugated to azurin according to the manufacturer instructions. Transgenic mice with spontaneously developed mammary tumours received NIR dye conjugated azurin at 5 mg/kg once i.p. After 24 h, specific fluorescence signal at 800 nm was recorded by the PDE-neo® NIR camera system (Hamamatsu photonics, Mitaka-USA).

Mel-2 cells = assay: Host cell adhesion assay, P. aeruginosa on Mel-2 cells; format: cell-based, human
Experimental: (§1) FIG. 24A-24E: 24A—Adherence assays were performed essentially as previously described38. Monolayer MDA-MB-231 (red) and Mel-2 (blue) cells were compared to siRNA-induced silencing of aldolase gene in the cancer cell lines (+) when they were co-incubated with P. aeruginosa for 2 h. To assess total cell association, monolayers were washed to remove unbound P. aeruginosa and were then disrupted and homogenized in 0.10% saponin/PBS. P. aeruginosa cells were counted by serial dilution of the homogenized suspensions and subsequent determination of colony-forming units (CFU) by plating on LB agar. Control (−) expressed as 100%. Mean±SE, *P<0.05. 24B—Monolayer MDA-MB-231 (red) and Mel-2 (blue) cells were co-incubated with P. aeruginosa in the presence or absence of exogenous aldolase A for 2 h. Similar to above, total P. aeruginosa association on cancer cells were counted by plating on LB agar. Control (0 μM aldolase A) expressed as 100%. […] Total P. aeruginosa association on cancer cells were counted by plating on LB agar. *P<0.05, NS: not significant. […] The mean+SE values were calculated.
(§2) Host cell adhesion assay: The assays were performed essentially as described before38. […] Control values of CFU/ml expressed as 100%. siRNA-induced silencing of aldolase and MUC1 genes in MDA-MB-231 and Mel2 cells as conducted as described previously80,81. […]

P. aeruginosa = assay: Azurin secretion by P. aeruginosa treated with purified aldolase A (western blot); format: cell-based, Pseudomonas aeruginosa; settings: 30 min
Experimental: FIG. 18A-18G: Induction of aldolase A secretion by host cells in the presence of P. aeruginosa. 18A. Human host cells (cancer and normal) and P. aeruginosa were co-incubated for 30 min at a concentration of 500,000 human cells/ml with P. aeruginosa at OD=0.3. Aldolase secretion varied between the co-cultures with cancer and normal cells. […] 18B Correlation between the aldolase A and azurin levels in co-cultures of P. aeruginosa with cancer or normal cells. 18C Cancer cells (Mel-2 and MDA-MB-231) and P. aeruginosa (WT and azunull mutant) were co-incubated for 30 min at a concentration of 500,000 human cells/ml with P. aeruginosa at OD=0.3. Secretion of aldolase into the culture supernatant was assessed by western blot analysis. 18D P. aeruginosa (OD=0.3) was treated with purified aldolase A protein at concentrations of 1 nM, 10 nM, 100 nM, and 1 μM for 30 min. […]
Western blotting: After running the NuPAGE, proteins were transferred to PVDF membranes (BioRad Laboratories Inc, Hercules, CA) which were blocked in SuperBlock (T20 TBS buffer, Thermo Fisher) for one hour. […] The signal was detected using enhanced chemiluminescence (ECL, Thermo Fisher Scientific). Quantitative analysis of the bands was performed with a computer-assisted imaging densitometer (UN-SCAN-IT gel version 5.1).

MDA-MB-231 cells = assay: Host cell adhesion assay, P. aeruginosa on MDA-MB-231 cells; format: cell-based, human
Experimental: as §1, §2

NIR dye-conjugated azurin: azurin conjugated to near infrared red fluorescent dye IR800
tumor localization (NIR fluorescence at 800 nm) [1]: preferentially localized to spontaneously developed mammary tumors

B1: aldolase A: purified human aldolase A (purity >95%), glycolytic enzyme (protein, UniProt P04075 2-364, looked up)
Fructose-bisphosphate …: PYQYPALTPEQKKELSDIAHRIVAPGKGILAADESTGSIAKRLQSIGTENTEENRRFYRQLLLTADDRVNPCIGGVILFHETLYQKADDGRPFPQVIKSKGGVVGIKVDKGVVPLAGTNGETTTQGLDGLSERCAQYKKDGADFAKWRCVLKIGEHTPSALAIMENANVLARYASICQQNGIVPIVEPEILPDGDHDLKRCQYVTEKVLAAVYKALSDHHIYLEGTLLKPNMVTPGHACTQKFSHEEIAMATVTALRRTVPPAVTGITFLSGGQSEEEASINLNAINKCPLLKPWALTFSYGRALQASALKAWGGKKENLKAAQEEYVKRALANSLACQGKYTPSGQAGAAASESLFVSNHAY
aldolase A concentration at which increase of adherence is saturable (Mel-2 cells; Mel-2, 2 h): > 1 µM | adherence of P. aeruginosa to cancer cells (Mel-2 cells; Mel-2, exogenous aldolase A, 2 h): significantly increased adherence to cancer cells | azurin secretion by P. aeruginosa (western blot) (P. aeruginosa; P. aeruginosa OD=0.3, 1 μM aldolase A): stimulated azurin secretion | azurin secretion by P. aeruginosa (western blot) (P. aeruginosa; P. aeruginosa OD=0.3, purified aldolase A 1 nM-1 μM): induced azurin secretion | aldolase A concentration at which increase of adherence is saturable (MDA-MB-231 cells; MDA-MB-231, 2 h): > 1 µM | adherence of P. aeruginosa to cancer cells (MDA-MB-231 cells; MDA-MB-231, exogenous aldolase A, 2 h): significantly increased adherence to cancer cells
